# Tests used:
# [1] = target: EPO receptor (Sinobiological, 10707-H08H) (UniProt P19235); experiment: SPR, Biacore 8K, 25 C
# [2] = target: T1, EPO receptor on TF-1 cells (human, UniProt P19235 25-508); experiment: cell-based or functional assay
# T1 sequence (looked up): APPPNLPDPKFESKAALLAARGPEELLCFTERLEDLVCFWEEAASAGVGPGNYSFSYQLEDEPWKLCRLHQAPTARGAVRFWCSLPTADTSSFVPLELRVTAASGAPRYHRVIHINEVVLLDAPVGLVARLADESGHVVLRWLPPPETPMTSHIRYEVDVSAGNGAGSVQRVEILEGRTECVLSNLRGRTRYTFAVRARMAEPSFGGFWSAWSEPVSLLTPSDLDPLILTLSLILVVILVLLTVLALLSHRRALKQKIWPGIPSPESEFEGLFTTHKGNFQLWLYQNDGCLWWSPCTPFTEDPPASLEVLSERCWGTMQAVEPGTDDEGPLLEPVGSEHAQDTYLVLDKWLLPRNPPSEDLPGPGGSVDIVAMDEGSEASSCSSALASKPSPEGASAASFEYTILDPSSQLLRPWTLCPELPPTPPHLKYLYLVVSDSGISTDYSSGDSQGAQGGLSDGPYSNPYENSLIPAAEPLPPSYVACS
substance,measurement,setting,value
"Darbepoetin (Darbe, lot #1078765A) (ligand)",Kd,[1],8.35 nM
same,"EC50 (ng/ml), TF-1 cell proliferation (MTS, absorbance at 490 nM)",[2],11.4 ng/mL

# — patent US20230331798A1 (JECHO LABORATORIES, published 2023)
